Measured values published in the nanobody polyreactivity screen of Harvey et al. (2022).

experiment: yeast display, Sf9 membrane polyspecificity reagent, FACS + sequencing; frameworks hold sequencing errors
Method in brief: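 Galactose-induced (36–48 hours) yeast carrying a synthetic nanobody display library were exposed to 10% biotinylated, detergent-solubilized Sf9 membrane reagent at 4 °C for 1 hour. FACS followed streptavidin microbead enrichment, using low and high (top ~1%) gates for expression (anti-HA) and reagent binding (streptavidin). Colony PCR, MiSeq 2 × 250 sequencing and CDR-length filtering followed. Labels for polyreactivity reflect the gate of origin.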

Row | Sequence | polyreactivity (PSR sort gate)
1 | QVQLVESGGGLVQAGGSLRLSCAASGSIFSQYAMGWYRQAPGKERELVAAITYGGGSTYYADSVKGRFTISRDNAKNTVYLQMNSLKPEDTAVYYCAKEFKYWGYPYDYWGQGTQVTVSS | low polyreactivity
2 | QVQLVESGGGLVQAGGSLRLSCAASGSIFSRNAMGWYRQAPGTERELVAAITDSTGTTYYADSVKGRFTISRDNAKNTVYLQMNSLKPEDTAVYYCNAVGVPQGNFYVRGDDYWGQGTQVTVSS | low polyreactivity
3 | QVQLVESGGGLVQAGGSLRLSCAASGSIFSRNTLGWYRQAPGKERELVAAITRGGSTDYADSVKGRFTISRDNAKNTVYLQMNSLKPEDTAVYYCAKKTPGWGKFDYWGQGTQVTVSS | low polyreactivity
4 | QVQLVESGGGLVQAGGSLRLSCAASGSIFSRNVMGWSRQAPGKERELVAGISWRGGRTYYADSVKGRFTISRDNAMITVYLQMTSLKPEDTAVYYCAKGGVSYGEGDYWGQGTQVTVSS | high polyreactivity
5 | QVQLVESGGGLVQAGGSLRLSCAASGSIFSRYAMGWYRQAPGKERELVAAISSSGSSTYYADSVKGRFTISRDNAKNTVYLQMNSLKPEDTAVYYCAATGYPRFGYWGQGTQVTVSS | high polyreactivity
6 | QVQLVESGGGLVQAGGSLRLSCAASGSIFSRYAMGWYRQAPGKERELVAAITSSGTSTYYADSVKGRFTISRDNAKNTVYLQMNSLKPEDTAVYYCAAAFRQRTSRFDYWGQGSQVTVSS | high polyreactivity
7 | QVQLVESGGGLVQAGGSLRLSCAASGSIFSRYAMGWYRQAPGKERELVADITTRGGRTYYADSVKGRFTISRDNAKNTVYLQMNSLKPEDTAVYYCATLHSYRYRGGGDYWGQGTQVTVSS | high polyreactivity
8 | QVQLVESGGGLVQAGGSLRLSCAASGSIFSRYAMVWYRQAPGKERELVAAISWSGGRTYYADSVKGRFTISRDNAKNTVYLQMNSLKPEDTAVYYCAAPSYTTSWRYDYWGQGTQVTVSS | high polyreactivity
9 | QVQLVESGGGLVQAGGSLRLSCAASGSIFSRYTMGWYRQAPGKERELVAAISSGGSTNYADSVKGRFTISRDNAKNTVYLQMNRLKPEDTAVYYCAARSYRYYYGFDYWGQGTQVTVSS | low polyreactivity
10 | QVQLVESGGGLVQAGGSLRLSCAASGSIFSRYTMGWYRQAPGKERELVAAISYSGTRTYYADSVKGRFTISRDNAKNTVYLQMNSLKPEDTAVYYCAAIASPAGSNYWGQGTQVTVSS | high polyreactivity
11 | QVQLVESGGGLVQAGGSLRLSCAASGSIFSRYTMGWYRQAPGKERELVAAITSSGVSTYYADSVKGRFTISRDNAKNTVYLQMNSLKPEDTAVYYCAAYSVFRSYDYWGQGTQVTVSS | high polyreactivity
12 | QVQLVESGGGLVQAGGSLRLSCAASGSIFSRYTMGWYRQAPGKERELVAVISTSGGSTYYADSVKGRFTISRDNAKNTVYLQMNSLKPEDTAVYYCNARPKRGSLGGPGYGYWGQGTQVTVSS | high polyreactivity
13 | QVQLVESGGGLVQAGGSLRLSCAASGSIFSSNAMGWYRPAPGKERELVAAITSGGSTTYADSVKGRFTISRDNAKNTVYLQMNSLKPEDTAVYYCNARNYYYPSDRDYWGQGTQVTVSS | low polyreactivity
14 | QVQLVESGGGLVQAGGSLRLSCAASGSIFSSNAMGWYRQAPGKERELVAAITSGGSTTYADSVKGRFTISRDNAKNTVYLQMNSLKPEDTAVYYCAADPVYRYYHGWTYLDYDYWGQGTQVTVSS | low polyreactivity
15 | QVQLVESGGGLVQAGGSLRLSCAASGSIFSSNAMGWYRQAPGKERELVAAITVSGGSTYYADSVKGRFTISRDNAKNTVYLQMNSLKPEDTAVYDCAVPVTYYFDGSWWRYDYWGQGTQVTVSS | high polyreactivity
16 | QVQLVESGGGLVQAGGSLRLSCAASGSIFSSNAMGWYRQAPGTTNYADSVKGRFTISRDNAKNTVYLQMNSLKPEDTAVYYCAKDYVLFQYVDFQDDDYWGQGTQVTVSS | low polyreactivity
17 | QVQLVESGGGLVQAGGSLRLSCAASGSIFSSNTMGWYRQAHGKERELVAAITVSGGRTYYADSVKGRFTISRDNAKNTVYLQMNSLKPEDTAVYYCATRWFGNSYSYRAYDYWGQGTQVTVSS | high polyreactivity
18 | QVQLVESGGGLVQAGGSLRLSCAASGSIFSSNTMGWYRQAPGKERELVAAITVSGGRTYYADSVKGRFTISRDNAKNTVYLQMNSLKPEDTAVYYCATRWFGNSYSYRAYDYWGQGTQVTVSS | high polyreactivity
19 | QVQLVESGGGLVQAGGSLRLSCAASGSIFSSYAMGWYRQAPGKEREFVAAINNNDGGTDYADSVKGRFTISRDNAKNTVYLQMNSLKPEDTAVYYCAADYTRYVQTTYDYWGQGTQVTVSS | low polyreactivity
20 | QVQLVESGGGLVQAGGSLRLSCAASGSIFSSYAMGWYRQAPGKERELVAAISTAGSTNYADSVKGRFTISRDNAKNTVYLQMNSLKPEDTAVYYCAADSGDQQSYGLDLNHDFDYWGQGTQVTVSS | low polyreactivity
21 | QVQLVESGGGLVQAGGSLRLSCAASGSIFSSYAMGWYRQAPGKERELVAGISKSGGSTYYADSVKGRFTISRDNAKNTVYLQMNSQKPEDTAVYYCAGPSYWGGGRYRYGYWGQGTQVTVSS | high polyreactivity

Row | Sequence | polyreactivity (PSR sort gate)
22 | QVQLVESGGGLVQAGGSLRLSCAASGSIFSSYTMGWYRQAPGKERELVAAISSTGSTYYADSVKGRFTISRDNAKNTVYLQMNSLKPEDTAVYYCAARGWYWQQYKGHTRYDYWGQGTQVTVSS | high polyreactivity
23 | QVQLVESGGGLVQAGGSLRLSCAASGSIFSTYAMGWYRQAPGKERELVAAINSGDSTSYADSVKGRFTISRDNAKNTVYLQMNSLKPEDTAVYYCAAKTGGYWYLRRTGRYESWGQGTQVTVSS | low polyreactivity
24 | QVQLVESGGGLVQAGGSLRLSCAASGSIFSTYAMGWYRQAPGKERELVAAITRRGGSTYYADSVKGRFTISRDNAKNTVYLQMNSLKPEDTAVYYCNAAAKSRMDYWGQATQVTVSS | high polyreactivity
25 | QVQLVESGGGLVQAGGSLRLSCAASGSIFSTYGMGWYRQAPGKERELVAAITTSGGRTYYADSVKGRFTISRDNAKNTVYLQMKSLKPEVTAVYYCKAVRGGRYGLDYWGQGTQVNVSS | high polyreactivity
26 | QVQLVESGGGLVQAGGSLRLSCAASGSIFSVNTMGWYRQAPGKERELVAAISESGDGTYYADSVKGRFTISRDNAKNTVYLQMNSLKPEDTAVYYCNADRQKGGGYYPHEFDYWGQGTQVTVSS | low polyreactivity
27 | QVQLVESGGGLVQAGGSLRLSCAASGSIFSVYAMGWYIQAPGKEREFVASISGGSGRTYYADSVKGRFTISRDNAKNTVYLQMNSLKPEDTAVYYCAAAYWAYDTGKMGYWGQGTQVTVSS | low polyreactivity
28 | QVQLVESGGGLVQAGGSLRLSCAASGSIFSWNAMGWYRQAPGKERELVAGITWSGGGTSYADSVKGRFTISRDNAKNTVYLQMNSLKPEDTAVYYCAKEWIFDFNYWGQGTQVTVSS | low polyreactivity
29 | QVQLVESGGGLVQAGGSLRLSCAASGSIFSWYAMGWYRQAPGKERELVAAISSRGGSTYYADSVKGRFTISRDTAKNTVYLQMYSLKPEDTAVYYCNTTYGYSTYWASGKYDYWGQGTQVTVSS | low polyreactivity
30 | QVQLVESGGGLVQAGGSLRLSCAASGSIFSYNAMGWDRQAPGKESELVAAITSGGGTNYADSVKGRFTISRDNAKNTVYLQINSLKPEDTAVYYCNAVPNYYDYDSWGQGTQVTVSS | high polyreactivity
31 | QVQLVESGGGLVQAGGSLRLSCAASGSIFSYNAMGWYRQAPGKERELVADITGSGGSTYYADSVKGRFTISRDNAKNTVYLQMNSLKPEDTAVYYCNAVGQYYYLGYDYWGQGTQVTVSS | low polyreactivity
32 | QVQLVESGGGLVQAGGSLRLSCAASGSIFSYNVIGWYRQAPGKEREMVATITVDGTSTYYADSVKGRFTISRDNAKNTVYLQMNSLKPEDTAVYDCAADETASFTQEYEEMEYWGQGTQVTVSS | low polyreactivity
33 | QVQLVESGGGLVQAGGSLRLSCAASGSIFSYYAMGRYRQAPGKEREIVAAISWSGGSTYYADSVKGRFTISRDNAKNTVYLQMNSLKPEDTAVYYCAAELSLSWLVPDVPYYYWGQGTQVTVSS | low polyreactivity
34 | QVQLVESGGGLVQAGGSLRLSCAASGSIFSYYAMGWSRQAPGKERELVATISWSGGSTYYADSVKGRFTISRDNAKNTVYLQMNSLKPEDTAVYYCAARIWTGRGRKLGYGYDYWGQGTQVTVSS | low polyreactivity
35 | QVQLVESGGGLVQAGGSLRLSCAASGSIFSYYAMGWYRQAPGKERELVAAISKRGASTYYADSVKGRFTISRDNAKNTVYLQMNSLKPEDTAVYYCAAYRQGSAYDYWGQGTQVTVSS | high polyreactivity
36 | QVQLVESGGGLVQAGGSLRLSCAASGSIFSYYAMGWYRQAPGKERELVAAISRGGSTYYADSVKGRFTISRDKAKNTVYLQMNSLKPEDTAVYYCNVDSFRYRHTGYGYTRYGYWGQGTQVTVSS | high polyreactivity
37 | QVQLVESGGGLVQAGGSLRLSCAASGSIFSYYAMGWYRQAPGKERELVASITYSGGSTYYADSVKGRFTISRDNAKNTVYLQMNSLKPEDTAVYYCAAPLAYEGDYWGQGTQVTVSS | low polyreactivity
38 | QVQLVESGGGLVQAGGSLRLSCAASGSIFSYYAMGWYRQAPGKERELVATISNSGVSTYYADSVKGRFTISRDNAKNTVYLQMNSLKPEDTAVYYCAKEWLYYNGFFRSYYWGQGTQVTVSS | high polyreactivity
39 | QVQLVESGGGLVQAGGSLRLSCAASGSIFSYYAMGWYRQAPGKERELVAVISSSGGRTYYADSVKGRFTISRDNAKNTVYLQMNSLKPEDTAVYYCARERWWGGSDYWGQGTQVTVSS | high polyreactivity
40 | QVQLVESGGGLVQAGGSLRLSCAASGSIFSYYAMGWYRQAPGKETEVVAAISQNGGSTYYADSVKGRVTISRDNAKNTVYLQMNSLKPEDTAVYYCNAYSVYVRGEYWGQGTQVTVSS | high polyreactivity
41 | QVQLVESGGGLVQAGGSLRLSCAASGSIFSYYAMGWYRQSPGNERELVAAITWSGGSTNYADSVKGRFTISRDNAKNTVYLQMTSLKPEDTAVYYCAADYWAWGKNEYDYWGQGTQVTVSS | low polyreactivity
